From US9266964

How the values were obtained:
human plasma kallikrein [1] = biological target: T1, human plasma kallikrein (human, UniProt P03952 20-390; P03952 391-638); experiment: ELISA, biotinylated plasma kallikrein coated on microtiter plate, signal divided by streptavidin background
T1 construct: also called pKal; human pKal
Text: Abbreviations used: "T/B" is the ELISA signal obtained using of the "target" (biotinylated plasma kallikrein) divided by the ELISA signal of the "background" (streptavidin); both of which were coated on microtiter plates. "nd" is not determined. The symbol "q" refers to the amber suppressible stop codon (TAG), which is translated as glutamine (Q) in strains of *E. coli* such as the TG1 cells that were used to express the Fab fragments.

human plasma kallikrein [2] = biological target: T1, human plasma kallikrein; experiment: apparent inhibition constant (Ki,app) against human pKal, enzyme inhibition

T1 sequence (P03952 20-390, chain 1 of 2): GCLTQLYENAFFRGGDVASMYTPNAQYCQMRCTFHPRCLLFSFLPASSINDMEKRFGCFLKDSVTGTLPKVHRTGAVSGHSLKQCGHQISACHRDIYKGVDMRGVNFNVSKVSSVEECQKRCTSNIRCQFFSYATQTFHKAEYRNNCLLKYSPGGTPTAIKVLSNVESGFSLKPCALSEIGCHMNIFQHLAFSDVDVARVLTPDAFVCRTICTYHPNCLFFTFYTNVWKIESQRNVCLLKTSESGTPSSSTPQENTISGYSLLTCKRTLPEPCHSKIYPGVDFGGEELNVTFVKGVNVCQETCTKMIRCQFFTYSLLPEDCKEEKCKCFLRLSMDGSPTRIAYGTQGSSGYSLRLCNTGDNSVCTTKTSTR
T1 sequence (P03952 391-638, chain 2 of 2): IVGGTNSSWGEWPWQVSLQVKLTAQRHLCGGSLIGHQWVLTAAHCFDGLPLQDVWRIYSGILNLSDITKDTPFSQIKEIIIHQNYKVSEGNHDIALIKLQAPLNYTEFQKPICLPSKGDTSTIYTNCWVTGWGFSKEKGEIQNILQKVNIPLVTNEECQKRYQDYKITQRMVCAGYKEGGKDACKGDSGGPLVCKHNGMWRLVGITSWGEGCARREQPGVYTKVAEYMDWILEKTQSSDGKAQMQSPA

Human pKal ELISA (T/B) (human plasma kallikrein [1]) | Ki (human plasma kallikrein [2]) [nM] | Binder
39.9 ratio of ELISA signal on target to background (streptavidin) | 5.9 | M6-D09 (Fab, V domains shown, Printed HC runs from VH into the start of CH1; also called M06-D09; 559A-M06-D09) VH: EVQLLESGGGLVQPGGSLRLSCAASGFTFSFYYMVWVRQAPGKGLEWVSVIYPSGGITVYADSVKGRFTISRDNSKNTLYLQMNSLRAEDTAVYYCARDKWAVMPPYYYYAMDVWGQGTTVTVSS VL: DIQMTQSPSSLSASVGDRVTITCRASQSIRNYLNWYQQKPGKAPNLLIYAASTLQSGVPARFSGSGSGTDFTLTISSLQPEDFATYYCQQLSGYPHTFGQGTKLEIK
4.1 ratio of ELISA signal on target to background (streptavidin) | 54 | M7-B04 (Fab, V domains shown, Printed HC runs from VH into the start of CH1) VH: EVQLLESGGGLVQPGGSLRLSCAASGFTFSWYSMVWVRQAPGKGLEWVSSISPSGGLTNYADSVKGRFTISRDNSKNTLYLQMNSLRAEDTAVYYCARHTAARPFYYYYMDVWGKGTTVTVSS VL: QSALTQPASVSGSPGQSITISCTGTNSDVGNYNLVSWYQQHPGEAPKLLIYEVNKRPSGVSNRFSGSKSGNTASLTISGLQAEDEADYLCCSYAGNRNFYVFGAGTKVTVL
45.7 ratio of ELISA signal on target to background (streptavidin) | 36 | M7-E07 (Fab, V domains shown, Printed HC runs from VH into the start of CH1) VH: EVQLLESGGGLVQPGGSLRLSCAASGFTFSWYLMIWVRQAPGKGLEWVSYIYPSGGFTYYADSVKGRFTISRDNSKNTLYLQMNSLRAEDMAVYYCARTEGPLSWGYGMDVWGQGTTVTVSS VL: not shown
5.4 ratio of ELISA signal on target to background (streptavidin) | 105 | M8-A09 (Fab, V domains shown, Printed HC runs from VH into the start of CH1) VH: EVQLLESGGGLVQPGGSLRLSCAASGFTFSTYFMLWVRQAPGKGLEWVSSIYPSGGNTVYADSVKGRFTISRDNSKNTLYLQMNSLRAEDTAVYYCARAASPVRNYYYYGMDVWGQGTTVTVSS VL: QCELTQPPSESVSPGQTANITCSGDKLGNKYAYWYQQKPGQSPVLVIYQDNNRPSGIPERFSGSNSGNTATLTISGTQAIDEANYYCQAWDSRTVVFGGGTKLTVL
39.2 ratio of ELISA signal on target to background (streptavidin) | < 100 | M10-F10 (Fab, V domains shown, Printed HC runs from VH into the start of CH1) VH: EVQLLESGGGLVQPGGSLRLSCAASGFTFSFYNMNWVRQAPGKGLEWVSSISPSGGETNYADSVKGRFTISRDNSKNTLYLQMNSLRAEDTAVYYCARGGGAYRNNWWGGFDIWGLGTMVTVSS VL: DIQMTQSPSSLSASVGDRVTITCRASQSISVYLNWYQHKPGKAPKLLIYGASNLQFGVPSRFSGSGYGTDFTLTISSLQPEDFATYHCQQTFSLFTFGGGTKVEIK
41.3 ratio of ELISA signal on target to background (streptavidin) | 16 | M27-E05 (Fab, V domains shown, Printed HC runs from VH into the start of CH1) VH: EVQLLESGGGLVQPGGSLRLSCAASGFTFSWYLMIWVRQAPGKGLEWVSYIYPSGGFTYYADSVKGRFTISRDNSKNTLYLQMNSLRAEDMAVYYCARTEGPLSWGYGMDVWGQGTTVTVSS VL: not shown
47.5 ratio of ELISA signal on target to background (streptavidin) | 0.7 | M29-D09 (Fab, V domains shown, Printed HC runs from VH into the start of CH1; also called 559A-M29-D09; 559A-M0029-D09) VH: EVQLLESGGGLVQPGGSLRLSCAASGFTFSWYTMVWVRQAPGKGLEWVSYIYPSGGATFYADSVKGRFTISRDNSKNTLYLQMNSLRAEDTAVYYCAMGSYDYIWGFYSDHWGQGTLVTVSS VL: QSALTQPPTVSVSPGQTARITCSGNKLGDKYVAWYQQKPGQSPMLVIYQDTKRPSRVSERFSGSNSANTATLSISGTQALDEADYYCQAWDSSIVIFGGGTRLTVL
28.8 ratio of ELISA signal on target to background (streptavidin) | 11 | M29-E09 (Fab, V domains shown, Printed HC runs from VH into the start of CH1) VH: EVQLLESGGGLVQPGGSLRLSCAASGFTFSWYEMGWVRQAPGKGLEWVSSIYSSGGGTMYADSVKGRFTISRDNSKNTLYLQMNSLRAEDTAVYYCARNPQYSGYDRSLSDGAFDIWGQGTMVTVSS VL: QYELTQPPSVSVSPGQTATITCSGDNLGNKYNSWYQQKPGQSPLLVIYQDTKRPSAIPERFSGSNSGNTATLTISGTQAMDEADYYCQAWDGNVVFGGGTKLTVL
11.1 ratio of ELISA signal on target to background (streptavidin) | 2.9 | M35-G04 (Fab, V domains shown, Printed HC runs from VH into the start of CH1; also called 559A-M35-G04; 559A-M0035-G04) VH: EVQLLESGGGLVQPGGSLRLSCAASGFTFSYYHMSWVRQAPGKGLEWVSVISPSGGSTKYADSVKGRFTISRDNSKNTLYLQMNSLRAEDTAVYYCARGGSSDYAWGSYRRPYYFDYWGQGTLVTVSS VL: DIQMTQSPATLSLSPGERATLSCRASQSVSSYLAWYQQKPGQAPRLLIYDASNRATGIPARFSGSGSGTDFTLTISSLEPEDFAVYYCQQRSNWPRGFTFGPGTKVDIK
33.5 ratio of ELISA signal on target to background (streptavidin) | 14 | M38-F02 (Fab, V domains shown, Printed HC runs from VH into the start of CH1) VH: EVQLLESGGGLVQPGGSLRLSCAASGFTFSYYMMVWVRQAPGKGLEWVSYIYSSGGHTVYADSVKGRFTISRDNSKNTLYLQMNSLRAEDTAVYYCARDLFLYDFWSKGAFDIWGQGTMVTVSS VL: QSVLTQPPSVSVSPGQTASITCSGEKLGDKYVSWYQQKPGQSPSLVICEDSRRPSGIPERFSGSNSGNTATLTISGAQPMDEADYYCQAWDSSTAIFGPGTKVTVL
28 ratio of ELISA signal on target to background (streptavidin) | 13 | M41-A11 (Fab, V domains shown, Printed HC runs from VH into the start of CH1) VH: EVQLLESGGGLVQPGGSLRLSCAASGFTFSHYRMSWVRQAPGKGLEWVSSIYPSGGRTVYADSVKGRFTISRDNSKNTLYLQMNSLRAEDTAVYYCAKDKFEWRLLFRGIGNDAFDIWGQGTMVTVSS VL: QSVLTQPPSVSVSPGQTASITCSGDKLGDKYTSWYQQRPGQSPVLVIYQDIKRPSGIPERFSGSNSGNTATLTISGTQAMDEADYYCQAWDSPNARVFGSGTKVTVL
4 ratio of ELISA signal on target to background (streptavidin) | < 100 | M73-D06 (Fab, V domains shown, Printed HC runs from VH into the start of CH1) VH: EVQLLESGGGLVQPGGSLRLSCAASGFTFSRYEMYWVRQAPGKGLEWVSSISSSGGPTAYADSVKGRFTISRDNSKNTLYLQMNSLRAEDTAMYYCAKGTPKWELLLRSIYIENAFDIWGQGTMVTVSS VL: QSELTQPPSASETPGQRVTISCSGSSSNIGSNTVSWFQQLPGSAPRLLIYNDHRRPSGVPDRFSGSKSGTSASLVISGLQSQDEADYYCSAWDDSLNGVVFGGGTKLTVL
11.2 ratio of ELISA signal on target to background (streptavidin) | < 100 | M76-D01 (Fab, V domains shown, Printed HC runs from VH into the start of CH1 (printed end APSPKS)) VH: EVQLLESGGGLVQPGGSLRLSCAASGFTFSFYAMHWVRQAPGKGLEWVSGIVPSGGRTHYADSVKGRFTISRDNSKNTLYLQMNSLRAEDTAVYYCATDSSGSPNPLFDYWGQGTLVTVSS VL: DIVMTQTPPSLPVNPGEPASISCRSSQSLSDDGNTYLDWYLQRPGQSPQLLIHTLSYRASGVPDRFSGSGSGTDFTLKISRVEAEDVGVYYCMQGTHWPPTFGQGTKVEIK
2.4 ratio of ELISA signal on target to background (streptavidin) | < 100 | M110-C12 (Fab, V domains shown, Printed HC runs from VH into the start of CH1) VH: EVQLLESGGGLVQPGGSLRLSCAASGFTFSYYEMDWVRQAPGKGLEWVSGISSSGGHTAYADSVKGRFTISRDNSKNTLYLQMNSLRAEDTATYYCARERRSSSRARYYYGMDVWGQGTTVTVSS VL: DIQMTQSPLSLSVTPGEPASISCRSSLSLLHSNGYNYLDWYVQRPGQSPQLLMYLSSTRASGVPDRFSGSGSGTDFTLEISRVEAEDVGVYYCMQPLETPPTFGGGTKVEIK
4.5 ratio of ELISA signal on target to background (streptavidin) | 79 | M137-E12 (Fab, V domains shown, Printed HC runs from VH into the start of CH1) VH: EVQLLESGGGLVQPGGSLRLSCAASGFTFSDYRMQWVRQAPGKGLEWVSVIVPSGGNTMYADSVKGRFTISRDNSKNTLYLQMNSLRAEDTAVYYCARGGPGSSIAARRAPTGYYGMDVWGQGTTVTVSS VL: QSVLIQPPSVSGIPGQRVTISCSGNNSNFGSNTVTWYQQLPGTAPKLLIYSDSRRPSGVPDRFSGSRSDTSASLAISGLQSEDEAEYHCAAWDDSLNGVFGGGTKLTVL
– | 0.9 | X67-F01 (antibody, V domains shown, Single point mutant (F to Q at P2 of HC CDR3) of M142-H08; Only variable domains and the start of CH1 are printed; also called 559A-X67-F01) VH: EVQLLESGGGLVQPGGSLRLSCAASGFTFSAYSMIWVRQAPGKGLEWVSYIRPSGGRTTYADSVKGRFTISRDNSKNTLYLQMNSLRAEDTAVYYCARGGLLLWQRELKSNYFDYWGQGTLVTVSS VL: DIQMTQSPSSLSAFVGDRVTITCRASQPIDNYLNWYHQKPGKAPKLLIYAASRLQSGVPSRLSGSGFGTDFTLTISSLQPEDFGNYYCQQSYTVPYTFGGGTKVEIR
– | 1.3 | X67-F10 (antibody, V domains shown, Single point mutant (F to T at P2 of HC CDR3) of M142-H08; Only variable domains and the start of CH1 are printed; also called 559A-X67-F10) VH: EVQLLESGGGLVQPGGSLRLSCAASGFTFSAYSMIWVRQAPGKGLEWVSYIRPSGGRTTYADSVKGRFTISRDNSKNTLYLQMNSLRAEDTAVYYCARGGLLLWTRELKSNYFDYWGQGTLVTVSS VL: DIQMTQSPSSLSAFVGDRVTITCRASQPIDNYLNWYHQKPGKAPKLLIYAASRLQSGVPSRLSGSGFGTDFTLTISSLQPEDFGNYYCQQSYTVPYTFGGGTKVEIR
– | 0.35 | X67-G04 (antibody, V domains shown, Single point mutant (F to A at P2 of HC CDR3) of M142-H08; Only variable domains and the start of CH1 are printed; also called 559A-X67-G04) VH: EVQLLESGGGLVQPGGSLRLSCAASGFTFSAYSMIWVRQAPGKGLEWVSYIRPSGGRTTYADSVKGRFTISRDNSKNTLYLQMNSLRAEDTAVYYCARGGLLLWARELKSNYFDYWGQGTLVTVSS VL: DIQMTQSPSSLSAFVGDRVTITCRASQPIDNYLNWYHQKPGKAPKLLIYAASRLQSGVPSRLSGSGFGTDFTLTISSLQPEDFGNYYCQQSYTVPYTFGGGTKVEIR
– | 3.6 | X67-H04 (antibody, V domains shown, Single point mutant (F to E at P2 of HC CDR3) of M142-H08; Only variable domains and the start of CH1 are printed; also called 559A-X67-H04) VH: EVQLLESGGGLVQPGGSLRLSCAASGFTFSAYSMIWVRQAPGKGLEWVSYIRPSGGRTTYADSVKGRFTISRDNSKNTLYLQMNSLRAEDTAVYYCARGGLLLWERELKSNYFDYWGQGTLVTVSS VL: DIQMTQSPSSLSAFVGDRVTITCRASQPIDNYLNWYHQKPGKAPKLLIYAASRLQSGVPSRLSGSGFGTDFTLTISSLQPEDFGNYYCQQSYTVPYTFGGGTKVEIR
– | 0.2 | X81-B01 (antibody, V domains shown, No variable domains are printed under the name X81-B01; also called germlined, codon optimized IgG version of X63-G06) VH: EVQLLESGGGLVQPGGSLRLSCAASGFTFSHYLMTWVRQAPGKGLEWVSYISPSGGHTIYADSVKGRFTISRDNSKNTLYLQMNSLRAEDTAVYYCARVARGIAARSRTSYFDYWGQGTLVTVSS VL: EIVLTQSPGTLSLSPGERATLSCRTSQFVNSNYLAWYQQKPGQAPRLLIYGASSRATGIPDRFSGSGSGTDFTLTISRLEPEDFAVYYCQQSSRTPWTFGQGTKVEIK
